Laboratory results from publication PMC1626108.

Experiments:
[1] = target: Hexokinase type I (HKI) (UniProt P17710)
[2] = target: T1, Recombinant Cox11, purified (mouse) (UniProt Q6P8I6)
T1 sequence (Q6P8I6 whole entry, looked up): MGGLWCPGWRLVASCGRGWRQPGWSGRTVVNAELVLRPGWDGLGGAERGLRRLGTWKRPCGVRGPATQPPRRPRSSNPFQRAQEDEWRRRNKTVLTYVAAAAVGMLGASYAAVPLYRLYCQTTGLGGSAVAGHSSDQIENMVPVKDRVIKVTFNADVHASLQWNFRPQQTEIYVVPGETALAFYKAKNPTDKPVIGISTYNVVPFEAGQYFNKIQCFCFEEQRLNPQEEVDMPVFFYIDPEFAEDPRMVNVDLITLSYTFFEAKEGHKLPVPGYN

Sequence of UniProt P17710 (P17710 other isoform, or with tags, fused parts or gaps): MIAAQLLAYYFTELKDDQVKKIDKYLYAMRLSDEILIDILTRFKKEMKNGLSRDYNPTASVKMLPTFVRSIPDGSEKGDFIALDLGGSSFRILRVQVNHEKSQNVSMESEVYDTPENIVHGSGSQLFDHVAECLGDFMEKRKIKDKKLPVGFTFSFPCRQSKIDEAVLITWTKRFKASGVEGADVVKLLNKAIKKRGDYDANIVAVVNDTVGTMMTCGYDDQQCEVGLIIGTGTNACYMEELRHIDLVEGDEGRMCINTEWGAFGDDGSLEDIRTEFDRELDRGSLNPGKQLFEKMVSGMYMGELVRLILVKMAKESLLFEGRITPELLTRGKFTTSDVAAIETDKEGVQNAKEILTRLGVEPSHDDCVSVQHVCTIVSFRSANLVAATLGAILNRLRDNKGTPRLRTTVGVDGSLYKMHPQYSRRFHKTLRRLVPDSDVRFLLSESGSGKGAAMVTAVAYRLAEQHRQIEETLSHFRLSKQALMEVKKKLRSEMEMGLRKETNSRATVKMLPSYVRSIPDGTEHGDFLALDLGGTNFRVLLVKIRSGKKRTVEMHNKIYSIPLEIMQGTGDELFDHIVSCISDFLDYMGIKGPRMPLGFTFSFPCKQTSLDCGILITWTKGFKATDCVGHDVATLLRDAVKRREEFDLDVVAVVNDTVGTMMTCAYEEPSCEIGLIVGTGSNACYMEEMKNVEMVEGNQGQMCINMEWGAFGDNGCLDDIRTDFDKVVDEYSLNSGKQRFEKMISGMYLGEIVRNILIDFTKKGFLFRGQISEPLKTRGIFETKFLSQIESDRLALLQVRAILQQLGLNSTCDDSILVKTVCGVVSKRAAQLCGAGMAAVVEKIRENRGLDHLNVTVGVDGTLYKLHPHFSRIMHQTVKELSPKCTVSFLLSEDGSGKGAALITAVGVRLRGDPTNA

HKI enzymatic activity (initial rates versus glucose, 0.24 ug HKI) with 0.25, 7.5 and 15 nM Cox11; concentration of Cox11 at which no activity was recorded [1] [nM] | reversal by increasing LD of the inhibition of HKI activity by 7.5 nM Cox11 at saturating glucose; half-maximal effect [2] [nM] | Substance
15 |  | Recombinant Cox11, purified (from UniProt Q6P8I6 75-275) (natural protein)
 | 0.05 | GST-LD, leucine-rich domain of RanBP2 fused to glutathione S-transferase (from UniProt P49792 62-711) (domain or fragment)
